Test results taken from publication PMC4938799, “LD Motif Recognition by Talin: Structure of the Talin-DLC1 Complex” (Structure(London, England:1993), 2016).
Entries after “also recorded” stand apart in the source; their conditions may differ.

Key:
Type in all cases: cell-based
[1] = system: A549 human non-small cell lung cancer line; experiment: Transwell cell migration assay; conditions: transfected A549, transwell, 24 h; mean over three experiments
From the text: (§1) Figure 6 Talin R8 Mutations Disrupt the Interaction with DLC1 and Affect Its Biological Activity (A) Wild-type GST-talin fragments pull down more DLC1 than the 2E mutants. Extracts of HEK293T cells transfected with GFP-DLC1 and GST-talin constructs were subjected to pull-down assays with glutathione beads followed by immunoblotting with anti-GST and anti-DLC1 on the same membrane (top). The transfected GFP-DLC1 in each sample is shown by the anti-DLC1 blot (bottom) as a loading control. (B) Wild-type GST-talin fragments compete efficiently with endogenous talin to form a complex with DLC1. The supernatants collected after pull-down assay from (A) were reused for co-immunoprecipitation with an anti-talin antibody and blotted with anti-DLC1 (top). A small aliquot from each lane was blotted for endogenous talin as a loading control (bottom). (C) Co-expression of GST or GST-talin fragments (wild-type or 2E mutant) with GFP DLC1 in A549 cells. […] Transfected A549 cells were cultured in G418 for 3 weeks, and colonies counted and quantitated (top). […] Transfected A549 cells were grown for 3 weeks in soft agar, and colonies counted and quantitated (top). […] Lysates from migrated cells were quantitated (top), and representative microscopic images of the migrated cells are shown (bottom). […]

[2] = system: A549 human non-small cell lung cancer line; experiment: Growth in soft agar; conditions: transfected A549, 3 weeks; mean over three experiments
From the text: as §1

[3] = system: A549 human non-small cell lung cancer line; experiment: G418 (monolayer) colony growth assay; conditions: transfected A549, G418 for 3 weeks; mean over three experiments
From the text: as §1

GFP-DLC1 = experiment: GST pull-down of GFP-DLC1 in HEK 293T cells; conditions: HEK 293T cells co-transfected with GFP-DLC1 and GST-tagged talin constructs, immunoblot
Protocol: We reported previously that wild-type talin R8 is sufficient to form a complex with full-length DLC1 in cells ([Li et al., 2011]). To evaluate the effects of the single K1530E and K1544E and double K1530E/K1544E (2E) R8 mutants on the complex formation in vivo, we engineered GST-tagged R8 constructs into isogenic mammalian expression plasmids and co-transfected them with GFP-DLC1 into HEK 293T cells. Complex formation was determined by a GST pull-down assay.
The plasmids expressing GFP-DLC1 and GST fusion proteins with talin rod fragments encoding talin amino acids 1,288–1,646 and 1,453–1,580 (R8) were described previously ([Li et al., 2011]). The plasmid encoding 1,352–1,580 (R7R8) was engineered by PCR and subcloned into a eukaryotic expression vector, PEBG. HEK293T cells were transfected by Lipofectamine 2000, and DLC1-null lung adenocarcinoma cell lines A549 and H358 cells were transfected by Lipofectamine 3000 according to the manufacturer’s instructions (Invitrogen). Cells were co-transfected with plasmids expressing GFP-DLC1 or Paxillin-DDK and GST, GST-talin fragments, or vector at a ratio of 1:2.5. Cells were incubated at 37°C in a humidified 5% CO2 atmosphere. In vivo pull-down assay, co-immunoprecipitation, immunoblotting, G418 colony growth, soft agar growth, and cell migration assays were described previously ([Qian et al., 2009]). All experiments were conducted in triplicate.
Figure S2, related to Figures 4 and 5. […]
R8 talin fragment were co-transfected with GFP-DLC1 into 293T cells. Cell extracts were subjected
(1 picture or pasted object on this page, not shown here) […]
to pull-down assay with glutathione beads followed by immunoblotting with anti-GST and anti-DLC1 on the same membrane (top). The transfected GFP-DLC1 in each sample is shown by the anti-DLC1 blot (bottom) as a loading control. […]
HEK 293T cells were transfected by lipofectamine 2000 and DLC1-null lung adenocarcinoma cell lines A549 and H358 cells were transfected by lipofectamine 3000 according to manufacturer instructions (Invitrogen). Cells were co-transfected with plasmids expressing GFP-DLC1 or Paxillin-DDK and GST, GST-talin fragments, or vector at a ratio of 1:2.5. Cells were incubated at 37 °C in a humidified 5% CO2 atmosphere.
In vivo pull-down assay, co-immunoprecipitation, and immunoblotting - As described previously (Qian et al., 2009), two days after transfection, cell extracts were collected using golden lysis buffer (GLB: 20 mM Tris pH 7.9, 137 mM NaCl, 10% glycerol, 1% Triton, 5 mM EDTA, 1 mM EGTA, 1 mM Na3VO4, 10 mM NaF, 1 mM sodium pyrophosphate, 0.5 mM β-glycerophosphate, and protease inhibitor cocktail tablet (Roche)). The cleared supernatants were collected, and the amount of protein estimated by BCA kit (Pierce). […]

Molecule	cell migration [1]	growth in soft agar [2]	colony growth [3]	DLC1 binding in GST pull-down (GFP-DLC1)	DLC1 binding in GST pull-down (GFP-DLC1; listed as GST-talin R1530E)	DLC1 binding in GST pull-down (GFP-DLC1; listed as talin R8 K1530E/K1544E double mutant)
GFP-DLC1: GFP fusion of full-length DLC1 expressed from plasmid (protein, left off: GFP, end not stated, kept, GFP fusion of full-length DLC1 expressed from plasmid) MCRKKPDTMILTQIEAKEACDWLRATGFPQYAQLYEDFLFPIDISLVKREHDFLDRDAIEALCRRLNTLNKCAVMKLEISPHRKRSDDSDEDEPCAISGKWTFQRDSKRWSRLEEFDVFSPKQDLVPGSPDDSHPKDGPSPGGTLMDLSERQEVSSVRSLSSTGSLPSHAPPSEDAATPRTNSVISVCSSSNLAGNDDSFGSLPSPKELSSFSFSMKGHEKTAKSKTRSLLKRMESLKLKSSHHSKHKAPSKLGLIISGPILQEGMDEEKLKQLNCVEISALNGNRINVPMVRKRSVSNSTQTSSSSSQSETSSAVSTPSPVTRTRSLSACNKRVGMYLEGFDPFNQSTFNNVVEQNFKNRESYPEDTVFYIPEDHKPGTFPKALTNGSFSPSGNNGSVNWRTGSFHGPGHISLRRENSSDSPKELKRRNSSSSMSSRLSIYDNVPGSILYSSSGDLADLENEDIFPELDDILYHVKGMQRIVNQWSEKFSDEGDSDSALDSVSPCPSSPKQIHLDVDNDRTTPSDLDSTGNSLNEPEEPSEIPERRDSGVGASLTRSNRHRLRWHSFQSSHRPSLNSVSLQINCQSVAQMNLLQKYSLLKLTALLEKYTPSNKHGFSWAVPKFMKRIKVPDYKDRSVFGVPLTVNVQRTGQPLPQSIQQAMRYLRNHCLDQVGLFRKSGVKSRIQALRQMNEGAIDCVNYEGQSAYDVADMLKQYFRDLPEPLMTNKLSETFLQIYQYVPKDQRLQAIKAAIMLLPDENREVLQTLLYFLSDVTAAVKENQMTPTNLAVCLAPSLFHLNTLKRENSSPRVMQRKQSLGKPDQKDLNENLAATQGLAHMIAECKKLFQVPEEMSRCRNSYTEQELKPLTLEALGHLGNDDSADYQHFLQDCVDGLFKEVKEKFKGWVSYSTSEQAELSYKKVSEGPPLRLWRSVIEVPAVPEEILKRLLKEQHLWDVDLLDSKVIEILDSQTEIYQYVQNSMAPHPARDYVVLRTWRTNLPKGACALLLTSVDHDRAPVVGVRVNVLLSRYLIEPCGPGKSKLTYMCRVDLRGHMPEWYTKSFGHLCAAEVVKIRDSFSNQNTETKDTKSR	suppressed cell migration; also recorded: inhibitory in all three assays	inhibitory in all three assays	suppressed colony formation; also recorded: inhibitory in all three assays			
talin R8 K1530E: GST-tagged talin R8 single mutant K1530E (protein, left off: GST, end not stated, kept) NSQAGQQGLVEPTQFARANQAIQMACQSLGEPGCTQAQVLSAATIVAKHTSALCNSCRLASARTANPTAKRQFVQSAEEVANSTANLVKTIKALDGDFTEENRAQCRAATAPLLEAVDNLSAFASNPE				greater reduction in DLC1 binding than K1544E	binds DLC1 less well than the K1544E mutant	
2E double mutant: GST-tagged talin R8 K1530E/K1544E double mutant (protein, left off: GST, end not stated, kept) NSQAGQQGLVEPTQFARANQAIQMACQSLGEPGCTQAQVLSAATIVAKHTSALCNSCRLASARTANPTAKRQFVQSAEEVANSTANLVKTIEALDGDFTEENRAQCRAATAPLLEAVDNLSAFASNPE				reduced binding to a greater extent than either single mutant		markedly reduced binding
